Several values for one entry are separate records, joined by “and”; a condition that tells them apart may be missing. Equal values may be shown once.

This experiment concerns the target DENV-4 parental viruses. As to the kind of experiment: cell-based or functional assay.

B1: Humanized IgG 5H2 ΔD (IgG1 5H2 with a 9-amino-acid deletion, positions 231-239, at the N-terminus of the CH2 domain) (antibody)
heavy: EVQLLESGPGLVKPSETLSLTCTVSGGSISDFYWSWLRQSPGKGLEWIGYAHSRVSAYYNPSLKSRVTISVDTSKNQLSLRLSAVTAADTALYYCARQGTGTTGVSEDFFDLWGQGTKVIVSLASTKGPSVFPLAPSSKSTSGGTAALGCLVKDYFPEPVTVSWNSGALTSGVHTFPAVLQSSGLYSLSSVVTVPSSSLGTQTYICNVDHKPSNTKVDKKVEPKSCDKTHTCPPCPVFLFPPKPKDTLMISRTPEVTCVVVDVSHEDPEVKFNWYVDGVEVHNAKTKPREEQYNSTYRVVSVLTVLHQDWLNGKEYKCKVSNKALPAPIEKTISKAKGQPREPQVYTLPPSRDELTKNQVSLTCLVKGFYPSDIAVEWESNGQPENNYKTTPPVLDSDGSFFLYSKLTVDKSRWQQGNVFSCSVMHEALHNHYTQKSLSLSPGK
light: not shown
As to B1, the PRNT50 titer was 0.03 µg/mL and 0.05 µg/mL.

(Values after US20100247549A1.)
